Laboratory results reported in paper PMC3169403 (Acta Crystallographica Section F: Structural Biology and …, 2011).

Biological target: glutaryl-CoA dehydrogenase from Burkholderia pseudomallei (Burkholderia pseudomallei strain 1710b)
Test: crystal structure

## glutaryl-CoA dehydrogenase from Burkholderia pseudomallei (enzyme)
  stoichiometry N: 4
